Reference: publication PMC7570257

Target: PRMT1 catalytic core construct
Experiment: SEC

“PRMT1 catalytic core construct (domain or fragment)” gave a stoichiometry N of 4.
